{
  "source": "paper PMC9352680",
  "about": "“A comprehensive thermodynamic model for RNA binding by the Saccharomyces cerevisiae Pumilio protein PUF4”",
  "target": "T1, PUF4 RNA-binding domain (Saccharomyces cerevisiae, UniProt P25339 537-888)",
  "T1 sequence": "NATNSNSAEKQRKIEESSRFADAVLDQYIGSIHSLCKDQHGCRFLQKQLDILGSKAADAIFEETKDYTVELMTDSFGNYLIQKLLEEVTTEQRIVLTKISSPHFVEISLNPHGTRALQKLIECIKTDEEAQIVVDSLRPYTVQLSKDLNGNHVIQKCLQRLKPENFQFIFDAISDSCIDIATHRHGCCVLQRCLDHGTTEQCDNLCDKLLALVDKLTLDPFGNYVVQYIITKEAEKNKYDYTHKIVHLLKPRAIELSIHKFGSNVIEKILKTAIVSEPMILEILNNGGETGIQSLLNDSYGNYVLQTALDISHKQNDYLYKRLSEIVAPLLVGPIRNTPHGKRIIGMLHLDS",
  "assay": "Mg; RNA-MaP; 20 mM Na-HEPES pH 7.4, 30 mM KOAc, 0.75 mM MgCl2, 0.1% Tween-20, 5% glycerol, 0.1 mg/mL BSA, 2 mM DTT; 25 C; 0.0125-409.6 nM protein",
  "conditions": "tags: N-His6-TEV cleaved; C-SNAP kept, Cy3B-labelled; label: tethered on chip by stalled RNA polymerase",
  "data": [
    {"binder": "UCUCUUUGUACUGUAAUCUCUU (ssRNA)", "note": "[Ic_S1_P5E.1_K5.1_C5.1_H5.1_A5.1_[T5C]_[A7G]_F5.1_[T9A]_T5.1]", "values": [
      {"measurement": "Kd", "result": 7.89, "unit": "nM"}
    ]},
    {"binder": "UCUCUUUGUAACAUUCUCUCUU (ssRNA)", "note": "[Ic_S1_P5E.1_K5.1_C5.1_H5.1_A5.1_[T5A]_[T6C]_F5.1_[A10C]_T5.1]", "values": [
      {"measurement": "Kd", "result": 15, "unit": "nM"}
    ]},
    {"binder": "UCUCUUUGUAUUCCUCUCUCUU (ssRNA)", "note": "[Ic_S1_P5E.1_K5.1_C5.1_H5.1_A5.1_[A7C]_F5.1_[T8C]_[A10C]_T5.1]", "values": [
      {"measurement": "Kd", "result": 132, "unit": "nM"}
    ]},
    {"binder": "UCUCUUUGUAUCUCGAUCUCUU (ssRNA)", "note": "[Ic_S1_P5E.1_K5.1_C5.1_H5.1_A5.1_[T6C]_[A7T]_F5.1_[T8C]_[T9G]_T5.1]", "values": [
      {"measurement": "Kd", "result": 463, "unit": "nM"}
    ]},
    {"binder": "UCUCUUUGUAUAUCCUUCUCUU (ssRNA)", "note": "[Ic_S1_P5E.1_K5.1_C5.1_H5.1_A5.1_[T6A]_[A7T]_F5.1_[T8C]_[T9C]_[A10T]_T5.1]", "values": [
      {"measurement": "Kd", "result": 24, "unit": "nM"}
    ]},
    {"binder": "UCUCUUUGUAUAUUGUCUCUU (ssRNA)", "note": "[Ic_S1_P4E.1_K4.1_C4.1_H4.1_A4.1_F4.1_[A9G]_T4.1]", "values": [
      {"measurement": "Kd", "result": 3.06, "unit": "nM"}
    ]},
    {"binder": "UCUCUUUGUAAUAUGGUCUCUU (ssRNA)", "note": "[Ic_S1_P5E.1_K5.1_C5.1_H5.1_A5.1_[T5A]_F5.1_[T9G]_[A10G]_T5.1]", "values": [
      {"measurement": "Kd", "result": 10.1, "unit": "nM"}
    ]},
    {"binder": "UCUCUUCGUAUUUAUCUCUU (ssRNA)", "note": "[Ib_S1_P3E.1_K3.1_C3.1_H3.1_[T1C]_A3.1_[A6T]_F3.1_T3.1]", "values": [
      {"measurement": "Kd", "result": "> 2300", "unit": "nM"}
    ]},
    {"binder": "UCUCUUUGUAUCUUCCUCUCUU (ssRNA)", "note": "[Ic_S1_P5E.1_K5.1_C5.1_H5.1_A5.1_[T6C]_[A7T]_F5.1_[T9C]_[A10C]_T5.1]", "values": [
      {"measurement": "Kd", "result": 74.7, "unit": "nM"}
    ]},
    {"binder": "UCUCUUUGUAACUCAGUCUCUU (ssRNA)", "note": "[Ic_S1_P5E.1_K5.1_C5.1_H5.1_A5.1_[T5A]_[T6C]_[A7T]_F5.1_[T8C]_[T9A]_[A10G]_T5.1]", "values": [
      {"measurement": "Kd", "result": 175, "unit": "nM"}
    ]},
    {"binder": "UCUCUUUGUAACGGCCUCUCUU (ssRNA)", "note": "[Ic_S1_P5E.1_K5.1_C5.1_H5.1_A5.1_[T5A]_[T6C]_[A7G]_F5.1_[T8G]_[T9C]_[A10C]_T5.1]", "values": [
      {"measurement": "Kd", "result": "> 2300", "unit": "nM"}
    ]},
    {"binder": "UCUCUUUGUAUAGCAUUCUCUU (ssRNA)", "note": "[Ic_S1_P5E.1_K5.1_C5.1_H5.1_A5.1_[T6A]_[A7G]_F5.1_[T8C]_[T9A]_[A10T]_T5.1]", "values": [
      {"measurement": "Kd", "result": 32.4, "unit": "nM"}
    ]},
    {"binder": "UCUCUUUGUAACUAAAUCUCUU (ssRNA)", "note": "[Ic_S1_P5E.1_K5.1_C5.1_H5.1_A5.1_[T5A]_[T6C]_[A7T]_F5.1_[T8A]_[T9A]_T5.1]", "values": [
      {"measurement": "Kd", "result": 506, "unit": "nM"}
    ]},
    {"binder": "UCUCUUUGUAAAACACUCUCUU (ssRNA)", "note": "[Ic_S1_P5E.1_K5.1_C5.1_H5.1_A5.1_[T5A]_[T6A]_F5.1_[T8C]_[T9A]_[A10C]_T5.1]", "values": [
      {"measurement": "Kd", "result": 56.4, "unit": "nM"}
    ]},
    {"binder": "UCUCUUUGUAUAUCAGUCUCUU (ssRNA)", "note": "[Ic_S1_P5E.1_K5.1_C5.1_H5.1_A5.1_[T6A]_[A7T]_F5.1_[T8C]_[T9A]_[A10G]_T5.1]", "values": [
      {"measurement": "Kd", "result": 4.58, "unit": "nM"}
    ]},
    {"binder": "UCUCUUUGUAUCGUUGUCUCUU (ssRNA)", "note": "[Ic_S1_P5E.1_K5.1_C5.1_H5.1_A5.1_[T6C]_[A7G]_F5.1_[A10G]_T5.1]", "values": [
      {"measurement": "Kd", "result": 315, "unit": "nM"}
    ]},
    {"binder": "UCUCUUUGUACGUCUGUCUCUU (ssRNA)", "note": "[Ic_S1_P5E.1_K5.1_C5.1_H5.1_A5.1_[T5C]_[T6G]_[A7T]_F5.1_[T8C]_[A10G]_T5.1]", "values": [
      {"measurement": "Kd", "result": 697, "unit": "nM"}
    ]},
    {"binder": "UCUCUUUGUACACGCGUCUCUU (ssRNA)", "note": "[Ic_S1_P5E.1_K5.1_C5.1_H5.1_A5.1_[T5C]_[T6A]_[A7C]_F5.1_[T8G]_[T9C]_[A10G]_T5.1]", "values": [
      {"measurement": "Kd", "result": 709, "unit": "nM"}
    ]},
    {"binder": "UCUCUUCGUAUGUAUCUCUU (ssRNA)", "note": "[Ib_S1_P3E.1_K3.1_C3.1_H3.1_[T1C]_A3.1_[A6G]_F3.1_T3.1]", "values": [
      {"measurement": "Kd", "result": 932, "unit": "nM"}
    ]},
    {"binder": "UCUCUUUGUACACACCUCUCUU (ssRNA)", "note": "[Ic_S1_P5E.1_K5.1_C5.1_H5.1_A5.1_[T5C]_[T6A]_[A7C]_F5.1_[T8A]_[T9C]_[A10C]_T5.1]", "values": [
      {"measurement": "Kd", "result": 76.8, "unit": "nM"}
    ]},
    {"binder": "UCUCUUUGUAUAUACGUCUCUU (ssRNA)", "note": "[Ic_S1_P5E.1_K5.1_C5.1_H5.1_A5.1_[T6A]_[A7T]_F5.1_[T8A]_[T9C]_[A10G]_T5.1]", "values": [
      {"measurement": "Kd", "result": 14.9, "unit": "nM"}
    ]},
    {"binder": "UCUCUUUGUAUAUAUUUCUCUU (ssRNA)", "note": "[Ic_S1_P5E.1_K5.1_C5.1_H5.1_A5.1_[T6A]_[A7T]_F5.1_[T8A]_[A10T]_T5.1]", "values": [
      {"measurement": "Kd", "result": 7.35, "unit": "nM"}
    ]},
    {"binder": "UCUCUUUGUAUUUAAAUCUCUU (ssRNA)", "note": "[Ic_S1_P5E.1_K5.1_C5.1_H5.1_A5.1_[A7T]_F5.1_[T8A]_[T9A]_T5.1]", "values": [
      {"measurement": "Kd", "result": 106, "unit": "nM"}
    ]},
    {"binder": "UCUCUUUGUACCUCCCUCUCUU (ssRNA)", "note": "[Ic_S1_P5E.1_K5.1_C5.1_H5.1_A5.1_[T5C]_[T6C]_[A7T]_F5.1_[T8C]_[T9C]_[A10C]_T5.1]", "values": [
      {"measurement": "Kd", "result": 414, "unit": "nM"}
    ]},
    {"binder": "UCUCUUUGUAGCACUUUCUCUU (ssRNA)", "note": "[Ic_S1_P5E.1_K5.1_C5.1_H5.1_A5.1_[T5G]_[T6C]_F5.1_[T8C]_[A10T]_T5.1]", "values": [
      {"measurement": "Kd", "result": 1000, "unit": "nM"}
    ]},
    {"binder": "UCUCUUAGUACAUAUCUCUU (ssRNA)", "note": "[Ib_S1_P3E.1_K3.1_C3.1_H3.1_[T1A]_A3.1_[T5C]_F3.1_T3.1]", "values": [
      {"measurement": "Kd", "result": 1760, "unit": "nM"}
    ]},
    {"binder": "UCUCUUGGUAUUUAUCUCUU (ssRNA)", "note": "[Ib_S1_P3E.1_K3.1_C3.1_H3.1_[T1G]_A3.1_[A6T]_F3.1_T3.1]", "values": [
      {"measurement": "Kd", "result": "> 2300", "unit": "nM"}
    ]},
    {"binder": "UCUCUUUGUACAAUAGUCUCUU (ssRNA)", "note": "[Ic_S1_P5E.1_K5.1_C5.1_H5.1_A5.1_[T5C]_[T6A]_F5.1_[T9A]_[A10G]_T5.1]", "values": [
      {"measurement": "Kd", "result": 0.742, "unit": "nM"}
    ]},
    {"binder": "UCUCUUUGUAACGAUGUCUCUU (ssRNA)", "note": "[Ic_S1_P5E.1_K5.1_C5.1_H5.1_A5.1_[T5A]_[T6C]_[A7G]_F5.1_[T8A]_[A10G]_T5.1]", "values": [
      {"measurement": "Kd", "result": 1000, "unit": "nM"}
    ]},
    {"binder": "UCUCUUUGUACUCUUUUCUCUU (ssRNA)", "note": "[Ic_S1_P5E.1_K5.1_C5.1_H5.1_A5.1_[T5C]_[A7C]_F5.1_[A10T]_T5.1]", "values": [
      {"measurement": "Kd", "result": 23.1, "unit": "nM"}
    ]},
    {"binder": "UCUCUUUGUAUCCUAUUCUCUU (ssRNA)", "note": "[Ic_S1_P5E.1_K5.1_C5.1_H5.1_A5.1_[T6C]_[A7C]_F5.1_[T9A]_[A10T]_T5.1]", "values": [
      {"measurement": "Kd", "result": 5.11, "unit": "nM"}
    ]},
    {"binder": "UCUCUUUGUAGCUACGUCUCUU (ssRNA)", "note": "[Ic_S1_P5E.1_K5.1_C5.1_H5.1_A5.1_[T5G]_[T6C]_[A7T]_F5.1_[T8A]_[T9C]_[A10G]_T5.1]", "values": [
      {"measurement": "Kd", "result": "> 2300", "unit": "nM"}
    ]}
  ]
}
